Test results reported in article PMC9482650, “Quantitative fragmentomics allow affinity mapping of interactomes” (Nature Communications, 2022).

T1: DVL3, Q92997
T1 sequence (Q92997 244-331, limits assumed, looked up): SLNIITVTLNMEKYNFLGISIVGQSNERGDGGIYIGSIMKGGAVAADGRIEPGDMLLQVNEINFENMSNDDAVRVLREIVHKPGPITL

T2: RADIL, Q96JH8
T2 sequence (Q96JH8 971-1071, limits assumed, looked up): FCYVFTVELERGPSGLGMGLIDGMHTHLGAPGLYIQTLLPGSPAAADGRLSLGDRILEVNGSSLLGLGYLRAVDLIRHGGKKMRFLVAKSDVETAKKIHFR

T3: APBA2_1, Q99767
T3 sequence (Q99767 563-664, limits assumed, looked up): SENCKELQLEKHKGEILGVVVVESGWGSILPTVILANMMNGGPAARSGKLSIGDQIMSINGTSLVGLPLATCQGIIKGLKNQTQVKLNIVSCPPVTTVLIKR

T4: GRIP1_3, Q9Y3R0
T4 sequence (Q9Y3R0 247-346, limits assumed, looked up): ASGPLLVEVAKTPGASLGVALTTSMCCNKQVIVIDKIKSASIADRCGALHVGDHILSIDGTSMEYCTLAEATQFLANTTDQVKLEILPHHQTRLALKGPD

T5: LRRC7, Q96NW7
T5 sequence (Q96NW7 1440-1537, limits assumed, looked up): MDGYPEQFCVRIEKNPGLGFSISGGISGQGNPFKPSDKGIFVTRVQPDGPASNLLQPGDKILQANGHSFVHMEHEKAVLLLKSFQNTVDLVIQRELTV

T6: PDZRN3_1, Q9UPQ7
T6 sequence (Q9UPQ7 244-349, limits assumed, looked up): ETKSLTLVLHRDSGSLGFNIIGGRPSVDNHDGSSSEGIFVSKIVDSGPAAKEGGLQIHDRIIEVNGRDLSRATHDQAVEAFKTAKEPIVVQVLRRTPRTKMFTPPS

T7: GRIP1_2, Q9Y3R0
T7 sequence (Q9Y3R0 145-248, limits assumed, looked up): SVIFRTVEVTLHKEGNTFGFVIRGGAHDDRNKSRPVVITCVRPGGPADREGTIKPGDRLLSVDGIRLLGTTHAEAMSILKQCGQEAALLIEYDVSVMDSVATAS

T8: RHPN1, Q8TCX5
T8 sequence (Q8TCX5 508-602, limits assumed, looked up): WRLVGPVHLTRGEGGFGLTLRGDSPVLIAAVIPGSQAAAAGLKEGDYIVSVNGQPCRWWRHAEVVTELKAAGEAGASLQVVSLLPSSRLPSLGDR

T9: MPDZ_12, O75970
T9 sequence (O75970 1857-1958, limits assumed, looked up): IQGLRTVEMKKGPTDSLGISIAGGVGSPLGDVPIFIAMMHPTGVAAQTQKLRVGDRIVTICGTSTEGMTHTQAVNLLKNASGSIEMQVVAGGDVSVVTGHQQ

T10: SNTB1, Q13884
T10 sequence (Q13884 107-205, limits assumed, looked up): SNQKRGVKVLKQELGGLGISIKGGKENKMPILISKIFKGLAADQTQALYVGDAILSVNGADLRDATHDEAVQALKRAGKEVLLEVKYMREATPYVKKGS

T11: SNTG2, Q9NY99
T11 sequence (Q9NY99 68-166, limits assumed, looked up): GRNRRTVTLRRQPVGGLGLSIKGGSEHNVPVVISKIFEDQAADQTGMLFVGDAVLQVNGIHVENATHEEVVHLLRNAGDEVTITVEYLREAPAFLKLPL

T12: DFNB31_1, Q9P202
T12 sequence (Q9P202 135-233, limits assumed, looked up): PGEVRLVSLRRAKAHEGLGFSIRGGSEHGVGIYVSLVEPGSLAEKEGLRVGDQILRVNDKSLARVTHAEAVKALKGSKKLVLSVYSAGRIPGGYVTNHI


Columns and labels:
Experiment in all cases: holdup assay
Set-up in all cases: key: below the threshold = too weak to quantify, mostly under pKd 3.1 to 4
Conditions in all cases: plain residues with an end cap or a label only (N-terminal biotin on a linker: ado-ado)
SCRIB_3, Q14160 = target: SCRIB_3, Q14160
SCRIB_3, Q14160, sequence (Q14160 999-1103): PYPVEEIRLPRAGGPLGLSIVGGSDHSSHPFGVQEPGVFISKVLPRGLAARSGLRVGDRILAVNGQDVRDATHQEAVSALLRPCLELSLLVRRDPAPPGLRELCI

DVL3, Q92997 = target: T1, DVL3, Q92997
ARHGEF12, Q9NZN5-2 = target: ARHGEF12, Q9NZN5-2
ARHGEF12, Q9NZN5-2, sequence (Q9NZN5 other isoform, or with tags, fused parts or gaps): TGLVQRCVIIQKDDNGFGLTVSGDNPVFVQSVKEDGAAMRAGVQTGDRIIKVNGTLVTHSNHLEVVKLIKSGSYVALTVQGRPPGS

RADIL, Q96JH8 = target: T2, RADIL, Q96JH8
DLG4_3, P78352 = target: DLG4_3, P78352
DLG4_3, P78352, sequence (P78352 306-403): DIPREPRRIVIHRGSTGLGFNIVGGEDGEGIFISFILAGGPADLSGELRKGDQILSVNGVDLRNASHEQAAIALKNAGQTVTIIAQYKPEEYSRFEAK

APBA2_1, Q99767 = target: T3, APBA2_1, Q99767
GRIP1_3, Q9Y3R0 = target: T4, GRIP1_3, Q9Y3R0
LRRC7, Q96NW7 = target: T5, LRRC7, Q96NW7
AHNAK1, Q09666 = target: AHNAK1, Q09666
AHNAK1, Q09666, sequence (Q09666 4-100): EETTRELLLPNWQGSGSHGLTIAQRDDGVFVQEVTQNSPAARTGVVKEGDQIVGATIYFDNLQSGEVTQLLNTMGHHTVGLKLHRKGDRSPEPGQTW

PDZRN3_1, Q9UPQ7 = target: T6, PDZRN3_1, Q9UPQ7
GRIP1_2, Q9Y3R0 = target: T7, GRIP1_2, Q9Y3R0
PARD3_3, Q8TEW0 = target: PARD3_3, Q8TEW0
PARD3_3, Q8TEW0, sequence (Q8TEW0 582-685): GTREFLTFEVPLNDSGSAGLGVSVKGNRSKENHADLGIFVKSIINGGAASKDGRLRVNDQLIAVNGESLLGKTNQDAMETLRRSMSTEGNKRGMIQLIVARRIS

Inadl_4, Q8NI35 = target: Inadl_4, Q8NI35
Inadl_4, Q8NI35, sequence (Q8NI35 547-651): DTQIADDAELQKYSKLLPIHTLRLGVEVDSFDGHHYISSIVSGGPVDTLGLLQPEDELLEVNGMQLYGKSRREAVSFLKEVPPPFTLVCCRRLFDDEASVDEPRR

MAGI2_3, Q86UL8 = target: MAGI2_3, Q86UL8
MAGI2_3, Q86UL8, sequence (Q86UL8 600-682): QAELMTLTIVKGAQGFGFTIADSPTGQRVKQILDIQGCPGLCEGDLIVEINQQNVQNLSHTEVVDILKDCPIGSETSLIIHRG

SCRIB_1, Q14160 = target: SCRIB_1, Q14160
SCRIB_1, Q14160, sequence (Q14160 718-814): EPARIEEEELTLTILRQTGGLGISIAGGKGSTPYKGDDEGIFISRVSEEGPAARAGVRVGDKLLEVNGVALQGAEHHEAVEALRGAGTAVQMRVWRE

Inadl_10, Q8NI35 = target: Inadl_10, Q8NI35
Inadl_10, Q8NI35, sequence (Q8NI35 1673-1763): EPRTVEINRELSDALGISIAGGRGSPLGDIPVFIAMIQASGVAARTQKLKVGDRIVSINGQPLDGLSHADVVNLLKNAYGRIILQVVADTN

MAGI2_5, Q86UL8 = target: MAGI2_5, Q86UL8
MAGI2_5, Q86UL8, sequence (Q86UL8 915-1017): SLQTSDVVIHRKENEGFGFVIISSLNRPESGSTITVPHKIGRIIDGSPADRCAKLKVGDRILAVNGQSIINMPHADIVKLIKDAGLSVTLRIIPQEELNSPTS

DLG1_2, Q12959 = target: DLG1_2, Q12959
DLG1_2, Q12959, sequence (Q12959 314-412): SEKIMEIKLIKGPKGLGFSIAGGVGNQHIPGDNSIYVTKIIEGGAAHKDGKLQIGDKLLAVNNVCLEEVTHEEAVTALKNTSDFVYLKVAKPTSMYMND

RHPN1, Q8TCX5 = target: T8, RHPN1, Q8TCX5
MPDZ_12, O75970 = target: T9, MPDZ_12, O75970
SNTB1, Q13884 = target: T10, SNTB1, Q13884
DLG2_3, Q15700 = target: DLG2_3, Q15700
SNTG2, Q9NY99 = target: T11, SNTG2, Q9NY99
DFNB31_1, Q9P202 = target: T12, DFNB31_1, Q9P202
NHERF4_2, Q86UT5 = target: NHERF4_2, Q86UT5
NHERF4_2, Q86UT5, sequence (Q86UT5 220-308): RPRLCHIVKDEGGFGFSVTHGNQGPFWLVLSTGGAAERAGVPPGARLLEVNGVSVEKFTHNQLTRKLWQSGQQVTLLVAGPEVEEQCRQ

pKd (SCRIB_3, Q14160) | pKd (DVL3, Q92997) | pKd (ARHGEF12, Q9NZN5-2) | pKd (RADIL, Q96JH8) | pKd (DLG4_3, P78352) | pKd (APBA2_1, Q99767) | pKd (GRIP1_3, Q9Y3R0) | pKd (LRRC7, Q96NW7) | pKd (AHNAK1, Q09666) | pKd (PDZRN3_1, Q9UPQ7) | pKd (GRIP1_2, Q9Y3R0) | pKd (PARD3_3, Q8TEW0) | pKd (Inadl_4, Q8NI35) | pKd (MAGI2_3, Q86UL8) | pKd (SCRIB_1, Q14160) | pKd (Inadl_10, Q8NI35) | pKd (MAGI2_5, Q86UL8) | pKd (DLG1_2, Q12959) | pKd (RHPN1, Q8TCX5) | pKd (MPDZ_12, O75970) | Binder | other results
below the threshold | below the threshold | below the threshold | 4.62 | below the threshold | below the threshold | below the threshold | below the threshold | below the threshold | below the threshold | below the threshold | 3.75 | below the threshold | 3.54 | below the threshold | below the threshold | below the threshold | below the threshold | below the threshold | below the threshold | EFKQTSSFLV [JAM1, Q9Y624] | pKd (SNTB1, Q13884): below the threshold; pKd (DLG2_3, Q15700): 3.63; pKd (SNTG2, Q9NY99): below the threshold; pKd (DFNB31_1, Q9P202): below the threshold; pKd (NHERF4_2, Q86UT5): below the threshold
4.21 | 4.23 | 3.61 | 4.13 | below the threshold | below the threshold | below the threshold | 3.49 | below the threshold | below the threshold | below the threshold | 4.62 | below the threshold | below the threshold | 3.94 | 3.54 | below the threshold | below the threshold | below the threshold | 4.1 | SGDGKTSVWI [GJC1, P36383] | pKd (SNTB1, Q13884): below the threshold; pKd (DLG2_3, Q15700): 3.83; pKd (SNTG2, Q9NY99): below the threshold; pKd (DFNB31_1, Q9P202): 3.48; pKd (NHERF4_2, Q86UT5): below the threshold
below the threshold | below the threshold | below the threshold | below the threshold | below the threshold | below the threshold | below the threshold | below the threshold | below the threshold | below the threshold | below the threshold | below the threshold | below the threshold | below the threshold | below the threshold | below the threshold | below the threshold | 3.78 | 3.85 | below the threshold | PGKKPEDSRV [SLCO2B1, O94956] | pKd (SNTB1, Q13884): 3.94; pKd (DLG2_3, Q15700): below the threshold; pKd (SNTG2, Q9NY99): 3.83; pKd (DFNB31_1, Q9P202): 3.67; pKd (NHERF4_2, Q86UT5): below the threshold
3.82 | below the threshold | 3.87 | 3.62 | 3.7 | below the threshold | below the threshold | below the threshold | below the threshold | below the threshold | below the threshold | below the threshold | below the threshold | below the threshold | below the threshold | below the threshold | below the threshold | 4.42 | 4.35 | below the threshold | EPAKETTTNV [SLC2A3, P11169] | pKd (SNTB1, Q13884): 4.57; pKd (DLG2_3, Q15700): below the threshold; pKd (SNTG2, Q9NY99): 4.03; pKd (DFNB31_1, Q9P202): 3.61; pKd (NHERF4_2, Q86UT5): 3.56
3.65 | 3.67 | below the threshold | 4.21 | below the threshold | below the threshold | below the threshold | below the threshold | below the threshold | below the threshold | below the threshold | 4.42 | below the threshold | below the threshold | below the threshold | below the threshold | below the threshold | 3.81 | below the threshold | below the threshold | DFKHTKSFII [JAM2, P57087] | pKd (SNTB1, Q13884): below the threshold; pKd (DLG2_3, Q15700): 3.75; pKd (SNTG2, Q9NY99): below the threshold; pKd (DFNB31_1, Q9P202): below the threshold; pKd (NHERF4_2, Q86UT5): below the threshold
4.29 | below the threshold | below the threshold | below the threshold | below the threshold | below the threshold | below the threshold | below the threshold | below the threshold | 3.88 | below the threshold | below the threshold | below the threshold | below the threshold | below the threshold | below the threshold | below the threshold | below the threshold | below the threshold | below the threshold | GNDPDRGTSI [GRID2, O43424] | pKd (SNTB1, Q13884): below the threshold; pKd (DLG2_3, Q15700): 3.69; pKd (SNTG2, Q9NY99): below the threshold; pKd (DFNB31_1, Q9P202): 4.46; pKd (NHERF4_2, Q86UT5): below the threshold
